From US20240132578A1

Columns and labels:
Experiment in all cases: cell-based or functional assay
[1] = target: HIV-1 JR-CSF Env V292A (HIV-1 (isolate JR-CSF, clade B)) (UniProt P20871)
[2] = target: HIV-1 JR-CSF Env D325A (HIV-1 isolate JR-CSF) (UniProt P20871)
[3] = target: HIV-1 JR-CSF Env P299A (HIV-1 (isolate JR-CSF, clade B)) (UniProt P20871)
[4] = target: HIV-1 JR-CSF Env T202A (HIV-1 (isolate JR-CSF)) (UniProt P20871)
[5] = target: HIV-1 JR-CSF Env T320A (HIV-1 (isolate JR-CSF, clade B)) (UniProt P20871)
[6] = target: HIV-1 envelope glycoprotein (Env) of isolate 92WR026, subtype A (HIV-1)
[7] = target: HIV-1 Env of isolate MGRM-F1-014 (pseudovirus) (HIV-1)
[8] = target: HIV-1 envelope glycoprotein (Env) of isolate JR-FL, on pseudovirus (HIV-1)
[9] = target: HIV-1 93UG077 Env (HIV-1)
HIV-1 APV13 Env (HIV-1) = target: HIV-1 APV13 Env (HIV-1)
[10] = target: aMLV envelope protein (negative control pseudovirus)
[11] = target: HIV-1 JR-CSF Env N262A (HIV-1 (isolate JR-CSF)) (UniProt P20871)
[12] = target: HIV-1 JR-CSF Env K305A (HIV-1 (isolate JR-CSF, clade B)) (UniProt P20871)
[13] = target: HIV-1 94UG103 envelope glycoprotein (Env) on pseudovirus (HIV-1)
[14] = target: HIV-1 92TH021 envelope glycoprotein (Env) on pseudovirus (HIV-1)
[15] = target: HIV-1 NL43 envelope glycoprotein (Env) on pseudovirus (HIV-1)
[16] = target: HIV-1 MGRM-D-018 envelope glycoprotein (Env) on pseudovirus (HIV-1)
[17] = target: HIV-1 92UG005 envelope glycoprotein (Env) on pseudovirus (HIV-1)
[18] = target: HIV-1 JRFL envelope glycoprotein (Env) on pseudovirus (HIV-1)
[19] = target: HIV-1 APV13 envelope glycoprotein (Env) on pseudovirus (HIV-1)
[20] = target: HIV-1 92UG024 envelope glycoprotein (Env) on pseudovirus (HIV-1)
[21] = target: HIV-1 MGRM-D-001 envelope glycoprotein (Env) on pseudovirus (HIV-1)
[22] = target: HIV-1 JRCSF envelope glycoprotein (Env) on pseudovirus (HIV-1) (UniProt P20871)
[23] = target: HIV-1 Env of isolate CMU02 (CRF01_AE) (HIV-1)
[24] = target: HIV-1 Env of isolate IAVI-C22 (Clade C) (HIV-1)
[25] = target: HIV-1 Env of pseudovirus MGRM-F1-013 (clade F) (HIV-1)

## 5136_H01 (PGT-131) (antibody)
[1]
  Fold IC50 increase relative to wild-type: 1.4 fold
[2]
  Fold IC50 increase relative to wild-type: > 170 fold
[3]
  Fold IC50 increase relative to wild-type: 2 fold
[4]
  Fold IC50 increase relative to wild-type: 2.7 fold
[5]
  Fold IC50 increase relative to wild-type: 4.5 fold

## 5141_B17 (PGT-126) (antibody)
[1]
  Fold IC50 increase relative to wild-type: 5 fold
[6]
  IC50, pseudovirus neutralization: 0.008 µg/mL
[3]
  Fold IC50 increase relative to wild-type: 0.2 fold
[7]
  IC50 (µg/mL), pseudovirus neutralization: > 50 µg/mL
[8]
  IC50, pseudovirus neutralization: 0.014 µg/mL
[9]
  IC50, pseudovirus neutralization: 0.0256 µg/mL
HIV-1 APV13 Env (HIV-1)
  IC50, pseudovirus neutralization: 0.012 µg/mL
[10]
  Neutralization IC80: > 10 µg/mL
  Neutralization IC90: > 10 µg/mL
  Neutralization IC95: > 10 µg/mL
  neutralization IC50: > 10 µg/mL

## 5147_N06 (PGT-130) (antibody)
[2]
  Fold IC50 increase relative to wild-type: > 1000 fold
[11]
  Fold IC50 increase relative to wild-type: 0.7 fold
[12]
  Fold IC50 increase relative to wild-type: 6.9 fold
[9]
  IC50, pseudovirus neutralization: > 10 µg/mL
HIV-1 APV13 Env (HIV-1)
  IC50, pseudovirus neutralization: 0.0345 µg/mL

## 5343_B08 (PGT-135) (antibody)
[1]
  Fold IC50 increase relative to wild-type: 2 fold
[13]
  Neutralization IC80: > 10 µg/mL
  Neutralization IC90: > 10 µg/mL
  Neutralization IC95: > 10 µg/mL
  neutralization IC50: > 10 µg/mL
[14]
  Neutralization IC80: > 10 µg/mL
  Neutralization IC90: > 10 µg/mL
  Neutralization IC95: > 10 µg/mL
  neutralization IC50: > 10 µg/mL
[15]
  Neutralization IC80: > 10 µg/mL
  Neutralization IC90: > 10 µg/mL
  Neutralization IC95: > 10 µg/mL
  neutralization IC50: 6.79 µg/mL
[11]
  Fold IC50 increase relative to wild-type: 2.1 fold
[3]
  Fold IC50 increase relative to wild-type: 0.36 fold
[16]
  Neutralization IC80: 0.2 µg/mL
  Neutralization IC90: > 10 µg/mL
  Neutralization IC95: > 10 µg/mL
  neutralization IC50: 0.0433 µg/mL
[17]
  Neutralization IC80: > 10 µg/mL
  Neutralization IC90: > 10 µg/mL
  Neutralization IC95: > 10 µg/mL
  neutralization IC50: > 10 µg/mL
[18]
  Neutralization IC80: > 10 µg/mL
  Neutralization IC90: > 10 µg/mL
  Neutralization IC95: > 10 µg/mL
  neutralization IC50: > 10 µg/mL
[19]
  Neutralization IC80: > 10 µg/mL
  Neutralization IC90: > 10 µg/mL
  Neutralization IC95: > 10 µg/mL
  neutralization IC50: 0.545 µg/mL
[4]
  Fold IC50 increase relative to wild-type: 1.8 fold
[20]
  Neutralization IC80: 0.054 µg/mL
  Neutralization IC90: 0.122 µg/mL
  Neutralization IC95: 0.267 µg/mL
  neutralization IC50: 0.0139 µg/mL
[21]
  Neutralization IC80: > 10 µg/mL
  Neutralization IC90: > 10 µg/mL
  Neutralization IC95: > 10 µg/mL
  neutralization IC50: > 10 µg/mL
[22]
  Neutralization IC80: 0.503 µg/mL
  Neutralization IC90: 1.47 µg/mL
  Neutralization IC95: 8.3 µg/mL
  neutralization IC50: 0.113 µg/mL

## PGT-141 (4964_G22; 4993_K13) (antibody)
[13]
  IC50, pseudovirus neutralization: > 10 µg/mL
[14]
  IC50, pseudovirus neutralization: 0.0019 µg/mL
[15]
  IC50, pseudovirus neutralization: 0.856 µg/mL
[16]
  IC50, pseudovirus neutralization: > 10 µg/mL
[17]
  IC50, pseudovirus neutralization: > 10 µg/mL
[18]
  IC50, pseudovirus neutralization: > 10 µg/mL
[19]
  IC50, pseudovirus neutralization: > 10 µg/mL
[20]
  IC50, pseudovirus neutralization: > 10 µg/mL
[21]
  IC50, pseudovirus neutralization: > 10 µg/mL
[22]
  IC50, pseudovirus neutralization: 0.0047 µg/mL

## PGT-142 (4995_E20) (antibody)
[13]
  IC50, pseudovirus neutralization: > 10 µg/mL
[14]
  IC50, pseudovirus neutralization: 0.0022 µg/mL
[15]
  IC50, pseudovirus neutralization: 0.712 µg/mL
[16]
  IC50, pseudovirus neutralization: > 10 µg/mL
[17]
  IC50, pseudovirus neutralization: > 10 µg/mL
[18]
  IC50, pseudovirus neutralization: > 10 µg/mL
[19]
  IC50, pseudovirus neutralization: > 10 µg/mL
[20]
  IC50, pseudovirus neutralization: > 10 µg/mL
[21]
  IC50, pseudovirus neutralization: > 10 µg/mL
[22]
  IC50, pseudovirus neutralization: 0.0085 µg/mL

## PGT-143 (4980_N08) (antibody)
[13]
  IC50, pseudovirus neutralization: > 10 µg/mL
[14]
  IC50, pseudovirus neutralization: 0.0028 µg/mL
[15]
  IC50, pseudovirus neutralization: 0.585 µg/mL
[16]
  IC50, pseudovirus neutralization: > 10 µg/mL
[17]
  IC50, pseudovirus neutralization: > 10 µg/mL
[18]
  IC50, pseudovirus neutralization: > 10 µg/mL
[19]
  IC50, pseudovirus neutralization: > 10 µg/mL
[20]
  IC50, pseudovirus neutralization: > 10 µg/mL
[21]
  IC50, pseudovirus neutralization: > 10 µg/mL
[22]
  IC50, pseudovirus neutralization: 0.0064 µg/mL

## PGT-144 (4970_K22) (antibody)
[13]
  IC50, pseudovirus neutralization: > 10 µg/mL
[14]
  IC50, pseudovirus neutralization: 0.0934 µg/mL
[15]
  IC50, pseudovirus neutralization: > 10 µg/mL
[16]
  IC50, pseudovirus neutralization: > 10 µg/mL
[17]
  IC50, pseudovirus neutralization: > 10 µg/mL
[18]
  IC50, pseudovirus neutralization: > 10 µg/mL
[19]
  IC50, pseudovirus neutralization: > 10 µg/mL
[20]
  IC50, pseudovirus neutralization: > 10 µg/mL
[21]
  IC50, pseudovirus neutralization: > 10 µg/mL
[22]
  IC50, pseudovirus neutralization: 0.128 µg/mL

## b12 (antibody)
[23]
  IC90 (neutralization of pseudovirus): 34.2 µg/mL
[24]
  IC90 (neutralization of pseudovirus): 29.6 µg/mL
[25]
  IC50: > 50 µg/mL
